Measurements published in patent US20260265360A1, “USE OF ANTI-FAM19A5 ANTAGONISTS FOR TREATING HEARING DISORDERS” (NEURACLE SCIENCE CO., LTD., priority 2023, published 2026).

Experiments:
[1] = biological target: T1, FAM19A5 mutants M1 to M8 (Homo sapiens, UniProt Q7Z5A7, D53C/P57N/Q56K/S54C/S55N); assay: Epitope mapping ELISA with FAM19A5 mutants M1-M8; format: binding
T1 construct: made in house; host or cells: phage display with helper phage
Procedure: (§1) To further characterize the binding epitopes of the anti-FAM19A5 antibodies disclosed in the present disclosure, the amino acid sequences for the different FAM19 family members (i.e., FAM19A1-5) were aligned. […] The amino acid sequences of these regions were replaced with the consensus sequence of the corresponding regions for the FAM19A1-4 proteins. See Table 13 (the mutated amino acid residues are bolded and underlined).
(§2) The mutant FAM19A5-expressing phages were prepared as follows. To prepare the media for phage culture, 55.6 ml of 2M Glucose (D-(+)-Glucose, Sigma), 5 mL of 1M MgCl2 (Magnesium chloride, Junsei) 1 mL of 34 mg/mL chloramphenicol (Sigma) were added to 2×YT media. Colonies obtained through mono-phage ELISA were selected and placed in 5 mL of prepared media (2×YT-GMC) to be cultured for 16 hours at 37° C. with shaking incubator (VS-8480, Vision). 100 μL of each culture was transferred to 10 mL 2×YT-GMC individually which were cultured at 37° C. in the incubator until detection value at O.D. 600 nm reached 0.5. Once detection value has reached 0.5 at O.D. 600 nm, 5 mL of each culture were obtained as samples to be infected. Following sample preparation, 50 μL of […] was added to individual samples then incubated at 37° C. without shaking for 30 minutes and with shaking for additional 30 minutes. Individual cultures were centrifuged for 15 minutes at 3,850 rpm using Micro centrifuge (Micro12, Hanil). The supernatants of centrifuged cultures were removed to be kept separate and replaced with 5 mL of 2×YT media containing 1 mL of IM IPTG (AG Scientific), 5 mL of 1M MgCl2.1 ml of 70 μg/μL kanamycin (Biopure) and 1 mL of Chloramphenicol. The resulting pellets were dispersed thoroughly in newly added media followed by incubation at 30° C. for 16 hours with stirring.

[2] = tested on: FAM19A5 epitope fragment F2 mutant peptides; assay: ELISA binding to mutant F2 peptide fragments (alanine scanning); design: species or system human
Source text: FIGS. 25A-25J provide the results of the alanine scanning analysis, showing the specific amino acid residues in the epitope F2 fragment that are important for the binding of the various 3-2 antibody variants to FAM19A5 protein. FIGS. 25A, 25B, 25C, and 25D show the results for the following antibodies generated in HEK293F cells: (A) wild-type 3-2 antibody, (B) 1-30 antibody, (C) 1-32 antibody, and (D) 6-10 antibody, respectively. FIGS. 25E, 25F, 25G, 25H, 25I, and 25J show the results for the following antibodies generated in CHO cells: (E) 1-17 antibody, (F) 1-30 antibody, (G) 1-32 antibody, (H) 4-11 antibody, (I) 6-10 antibody, and (J) low-PI antibody, respectively. […] Binding of the antibodies to the different mutant peptides was measured using ELISA.
Overlapping peptide fragments (F1-F6 epitope fragments; SEQ ID NOs: 178-183) of the human FAM19A5 protein were synthesized and conjugated to BSA (SEQ ID NOs: 322-327). Binding of the different anti-FAM19A5 antibodies to the BSA-conjugated peptide fragments F1-F6 was determined by Western blot analysis or ELISA assay. […] The membrane was incubated with the anti-FAM19A5 antibody (e.g., 1-65, […], 1-65-scFv-rabbit Fc-SSS), and the antigen-antibody complexes were detected with the appropriate secondary antibody conjugated with horse-radish peroxidase (anti-rabbit IgG (Fc specific)-HRP, 1:4000 dilution). […]

[3] = biological target: FAM19A5 antigen (Homo sapiens, UniProt Q7Z5A7); assay: Cross-competition two-site sandwich ELISA; format: binding; details: antibodies 1-65, P2-A03, P2-F11, 13B4, 2-13, 3-2; cross-competition = S/N ratio lower than 2
FAM19A5 antigen, sequence (Q7Z5A7 44-132): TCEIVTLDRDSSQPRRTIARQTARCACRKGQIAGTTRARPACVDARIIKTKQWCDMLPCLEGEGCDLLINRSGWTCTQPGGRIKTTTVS
Procedure: The term “S/N” refers to the signal to noise ratio, which is measured as follows: [O.D. of 10 ng/ml antigen]/[O.D. of 0 ng/ml antigen].
Next, a two-site sandwich ELISA was used as described below to assess whether the different anti-FAM19A5 antibodies with similar binding epitopes cross-compete with each other.
First, the indicated anti-FAM19A5 antibodies were diluted in 1×PBS to a concentration of 10 μg/mL. The diluted anti-FAM19A5 antibodies (10 μg/mL in 1×PBS) (“capture antibody”) were used to coat the 96-well plates (100 μL/well) at 37° C. for approximately 1 hour. After the incubation, the plates were washed with the washing buffer (0.01% Tween-20/PBS; also called 0.01% PBST) for a total of five washes, blocked with the blocking solution (5% BSA/PBS; also called 5% PBSA) (250 μL/well) for one hour at 37° C., and then washed again. Next, 100 μg/mL of the FAM19A5 antigen (diluted in PBS containing 5% BSA, 0.01% Tween-20; also called 5% PBSAT; “diluent buffer) was added to each of the wells, and the 96-well plates were incubated for 2 hours at 37° C. After the incubations, the plates were washed using 0.01% PBST for a total of five washes. After the final wash, the indicated biotinylated anti-FAM19A5 antibodies (“detection antibody”) (diluted to lug/mL in 5% PBSAT) were added to the relevant wells (100 μL volume) and the plates were incubated for an additional 1 hour at 37° C. Afterwards, the plates were washed again with 0.01% PBST (five total washes). Next, 100 μL of the diluted (1/2000 in 5% PBSAT) Streptavidin-HRP (1 mg/mL, Sigma, USA) was added to the wells, and the plates were incubated for 30 minutes at room temperature. The plates were then washed and treated with 100 μL of the TMB substrate ([…], Thermo Fisher Scientific). After an additional 30-minute incubation at room temperature, the color change reaction was induced by the addition of the TMB substrate. This reaction was stopped using 50 μL of sulfuric acid (2N H2SO4), and the extent of color change was detected via absorption at 450 nm with reference wavelength at 620 nm using a 96 well microplate reader (Molecular Device).

[4] = biological target: T2, FAM19A5 mutants M1 to M8 (Homo sapiens, UniProt Q7Z5A7); assay: Epitope mapping ELISA with FAM19A5 mutants M1-M8; format: binding
T2 construct: made in house; host or cells: phage display with helper phage
T2 sequence (Q7Z5A7 with tags, fused parts or gaps isoform Q7Z5A7-2, change not shown): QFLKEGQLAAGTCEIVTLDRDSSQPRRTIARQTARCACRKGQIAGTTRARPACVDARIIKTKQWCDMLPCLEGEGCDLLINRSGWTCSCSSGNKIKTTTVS
Procedure: as §1, §2

[5] = biological target: T3, FAM19A5 mutants M1 to M8 (Homo sapiens, UniProt Q7Z5A7, D98Q/K92L/K94R/L100E/P101L/Q95W/T93Q); assay: Epitope mapping ELISA with FAM19A5 mutants M1-M8; format: binding
T3 construct: made in house; host or cells: phage display with helper phage
T3 sequence (Q7Z5A7 26-125 isoform Q7Z5A7-2 K85L/T86Q/K87R/Q88W/D91Q/L93E/P94L): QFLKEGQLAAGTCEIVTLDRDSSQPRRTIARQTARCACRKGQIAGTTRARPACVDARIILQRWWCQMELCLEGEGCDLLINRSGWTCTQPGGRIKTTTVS
Procedure: as §1, §2

[6] = biological target: T4, FAM19A5 mutants M1 to M8 (Homo sapiens, UniProt Q7Z5A7, D109K/G107E/I112P/L110T/N113D/R114N); assay: Epitope mapping ELISA with FAM19A5 mutants M1-M8; format: binding
T4 construct: made in house; host or cells: phage display with helper phage
T4 sequence (Q7Z5A7 26-125 isoform Q7Z5A7-2 G100E/D102K/L103T/I105P/N106D/R107N): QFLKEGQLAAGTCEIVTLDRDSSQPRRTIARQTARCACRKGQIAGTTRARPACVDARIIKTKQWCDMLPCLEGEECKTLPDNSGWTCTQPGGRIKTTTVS
Procedure: as §1, §2

T1 sequence (Q7Z5A7 26-125 isoform Q7Z5A7-2 D46C/S47C/S48N/Q49K/P50N): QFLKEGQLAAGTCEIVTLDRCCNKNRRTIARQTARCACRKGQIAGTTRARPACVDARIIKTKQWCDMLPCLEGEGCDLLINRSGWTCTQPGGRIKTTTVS

binding to FAM19A5 mutant M2 [1] | binding to mutant F2 peptide fragments #1, 2, 6, and 8-13 [2] | binding to mutant F2 peptide fragments #3, 4, 5, and 7 [2] | cross-competition with the other anti-FAM19A5 antibodies [3] | binding to FAM19A5 mutant M8 [4] | binding to FAM19A5 mutant M6 [5] | binding to FAM19A5 mutant M7 [6] | Molecule
failed to bind | bound strongly | much reduced binding |  |  |  |  | 1-28: anti-FAM19A5 antibody; VH SEQ ID NO: 38, VL SEQ ID NO: 42 (antibody, V domains shown, 1-28 VH; 1-28 VL) VH: AVTLDESGGGLQTPGGALSLVCKASGFDFSDYGMGWVRQAPGKGLEWVAAIRSDGSNPSYGSAVKGRATISKDNGRSTVRLQLNNLRAEDTATYYCAKDGNGYCALDAYRSGGYSCGVYPGSIDAWGHGTEVIVSS VL: ALTQPSSVSANLEGTVEITCSGSGYGYGWYQQKSPGSAPVTVIYQNDKRPSDIPSRFSGSKSGSTGTLTITGVQVEDEAVYYCGSEDSSTLAGIFGAGTTLTVL
 |  |  | cross-competed with one another | failed to bind | failed to bind | reduced binding | 13B4: anti-FAM19A5 antibody; VH SEQ ID NO: 156, VL SEQ ID NO: 167 (antibody, V domains shown, 13B4 VH; 13B4 VL) VH: QVQLQESGPGLVKPSGTLSLNCAVSGGSISSSNWWSWVRQPPGKGLEWIGEIYHGGTTNYNPSLKGRVTMSVDKTKNQFSLRLSSVTAVDTAVYYCARWQLVGGLDVWGQGTTVTVSS VL: SYELTQPLSVSVSPGQTASITCSGDKLGNVYASWYQQKPGQSPTLVIYQDNKRPSGIPERFSGSNSGKTATLTISGTQALDEADYYCQAWDSSTAVFGGGTKLTVL
